Test results published in the supplement of paper PMC9732359.
± gives the uncertainty stated by the source.

Test: protein stability index of a GFP-peptide fusion (yeast GPS) (PSI 1-4); higher = more stable; sorted into four equal gates, so the index is relative within each strain
Method in brief: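 Yeast carrying a pooled library were grown to mid-log phase in leucine-free medium. Each library plasmid expresses Cherry and has a tiled 17-residue yeast protein peptide fused downstream of GFP. Cells were sorted into four equal gates by GFP/Cherry ratio, and plasmids from each gate were PCR-amplified, Illumina-sequenced and assigned to strains by barcode. Summing, across gates, the read frequency times the gate number gave each peptide's protein stability index.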

Sequence	protein stability index (doa10∆)	protein stability index (pdr5∆)	protein stability index (san1∆)	protein stability index (ubr1∆)
PPPPQQSQPIANQSATS [SNF5]	2.96 ± 0.057	3.15 ± 0.049	2.92 ± 0.043	3.05 ± 0.041
PQNTTATTGGLFGSKPQ [YGR119C/NUP57]	3.33 ± 0.1	3.36 ± 0.1	3.32 ± 0.13	3.53 ± 0.17
PQQAQQQPNPLHGLTPT [GAL11]	3 ± 0.068	2.95 ± 0.042	2.83 ± 0.051	3.05 ± 0.035
PQQSGKKLLINKDASLA [DPB4]	2.2 ± 0.062	1.99 ± 0.064	1.81 ± 0.1	2.22 ± 0.055
PRKLVLSSGENRYAFSQ [SMC4]	1.39 ± 0.08	1.56 ± 0.058	1.72 ± 0.086	1.59 ± 0.054
PRMYHIGLRQFQQIQYE [POP1]	2.06 ± 0.098	1.67 ± 0.071	2.25 ± 0.095	1.48 ± 0.1
PRRYGKGSRQCRVCSSH [RPS29A]	2.81 ± 0.055	3.01 ± 0.043	2.92 ± 0.042	2.91 ± 0.038
PSAFNFTGNNSTPGGGS [YOR098C/NUP1]	–	–	3.14 ± 0.13	–
PSAGPHKLRESLPLIVF [RPS4A]	1.76 ± 0.048	1.75 ± 0.045	1.69 ± 0.087	2.05 ± 0.046
PSKDSFTKYKPARSSSL [YAR002W/NUP60]	2.15 ± 0.043	2.59 ± 0.044	2.44 ± 0.053	2.77 ± 0.04
PSKSQTNFKEEITDASL [YML103C/NUP188]	2.93 ± 0.15	3.13 ± 0.11	3.02 ± 0.18	2.92 ± 0.18
PSLYRLLNILITYGIIK [SRB8]	1.37 ± 0.12	1.07 ± 0.12	–	1.04 ± 0.044
PSPPNVIITDGTLLRED [YDL088C/ASM4]	2.71 ± 0.036	2.81 ± 0.041	2.97 ± 0.045	2.91 ± 0.034
PSRKDCMEVASAFMKFS [BRR2]	2.4 ± 0.054	2.78 ± 0.047	2.83 ± 0.06	2.68 ± 0.055
PSTDKNEKKTETNAKPF [YLR335W/NUP2]	3.32 ± 0.11	3.28 ± 0.094	3.34 ± 0.044	3.33 ± 0.096
PSTRSNFILEVFGTIIP [YJL039C/NUP192]	1.35 ± 0.085	1.41 ± 0.071	1.28 ± 0.23	1.35 ± 0.072
PSTSITLAERQQLAYDL [RPN9]	2.91 ± 0.045	3.09 ± 0.06	2.8 ± 0.06	2.94 ± 0.033
PSTTLFNFGGKSDTVTS [YOR098C/NUP1]	2.51 ± 0.065	2.32 ± 0.075	2.4 ± 0.073	2.92 ± 0.059
PTEMEPDLDTECFISMQ [SWI1]	3.27 ± 0.055	3.39 ± 0.052	3.23 ± 0.047	3.26 ± 0.058
PTFTFGSSALADNKEDV [YLR335W/NUP2]	3.13 ± 0.074	3.06 ± 0.049	3.06 ± 0.041	3.09 ± 0.033
PTFVEFILIPLYKIFSY [SNU114]	1.98 ± 0.045	1.73 ± 0.054	1.62 ± 0.073	1.63 ± 0.044
PTIEYVQCPTVIKLAKY [ARP9]	1.97 ± 0.047	1.87 ± 0.034	1.75 ± 0.068	1.98 ± 0.032
PTPAASAPAPAAAAPAP [FAS2]	2.95 ± 0.1	3.05 ± 0.073	2.72 ± 0.074	3.1 ± 0.079
PTRYVLIRNVGTNTYRL [POP1]	1.97 ± 0.29	1.32 ± 0.23	1.12 ± 0.28	–
PTVHNSTAAAPIAAPKK [PGD1]	2.81 ± 0.065	3.08 ± 0.071	2.83 ± 0.052	3.072 ± 0.029
PVDHPHGGGNHQHIGKA [RPL2A]	3.11 ± 0.11	3.31 ± 0.085	3.09 ± 0.051	3.22 ± 0.071

Sequence	protein stability index (doa10∆)	protein stability index (pdr5∆)	protein stability index (san1∆)	protein stability index (ubr1∆)
PVENIWADIFAKALDGQ [RPP1A]	3.13 ± 0.1	3.25 ± 0.12	2.49 ± 0.23	2.62 ± 0.1
PVIDYELKEITSLPDWC [BRR2]	2.8 ± 0.099	2.78 ± 0.086	3.1 ± 0.086	3.05 ± 0.048
PVKALNECIASTSNALK [SNF12]	2.85 ± 0.056	2.8 ± 0.066	2.75 ± 0.05	2.81 ± 0.051
PVKLDENSANSTVASAL [SIR4]	2.9 ± 0.13	3.09 ± 0.081	2.76 ± 0.09	2.9 ± 0.074
PVLDNPFTNEAHMWPRV [POP3]	3.26 ± 0.12	2.94 ± 0.1	2.99 ± 0.11	3.27 ± 0.06
PVLFNRQPSLHKMSMMA [RPO21]	2.54 ± 0.11	2.95 ± 0.093	3.05 ± 0.23	2.23 ± 0.16
PVRPVRVRHEDVETVKR [RPC53]	2.9 ± 0.077	2.97 ± 0.048	2.88 ± 0.055	3.04 ± 0.037
PYAIVKGKARLGTLVNQ [RPL8A]	2.54 ± 0.1	2.81 ± 0.093	2.74 ± 0.16	2.73 ± 0.073
PYFDYIFNDILAHVDQI [YJL039C/NUP192]	1.9 ± 0.11	1.89 ± 0.077	2.39 ± 0.099	1.94 ± 0.054
PYQHPPNIFPNLTYYNE [ITC1]	2.68 ± 0.058	2.83 ± 0.045	2.66 ± 0.045	2.76 ± 0.039
PYTGWVDSKTKEPVDDK [FAS2]	3.05 ± 0.062	3.17 ± 0.069	3.05 ± 0.045	3.17 ± 0.053
PYYKYLCEEYLVNNGQS [RPN7]	2.86 ± 0.087	2.41 ± 0.091	2.61 ± 0.088	1.77 ± 0.067
QAHEIVIPSYSKWFNLE [SWI3]	1.84 ± 0.052	1.82 ± 0.051	1.81 ± 0.071	1.66 ± 0.038
QAHTLYNSVRPFGVSTI [PRE10]	2.71 ± 0.083	2.74 ± 0.071	2.92 ± 0.095	2.6 ± 0.042
QAIPKFQMNCYAKEDAF [RPN2]	1.84 ± 0.061	2.23 ± 0.044	2.17 ± 0.067	2.57 ± 0.036
QALDISKKGKPTVNKKP [SRP72]	2.59 ± 0.16	2.82 ± 0.1	2.36 ± 0.16	2.3 ± 0.14
QALEKIGIVEISPKGGR [RPS19A]	2.46 ± 0.15	2.74 ± 0.18	2.2 ± 0.13	2.56 ± 0.15
QAMGVFLTNYNVRMDTM [RPB2]	3.54 ± 0.19	3.14 ± 0.16	3.63 ± 0.11	3.5 ± 0.14
QAPFSTSTKDKNSSTSN [MED1]	3.11 ± 0.062	3.24 ± 0.068	3.12 ± 0.054	3.09 ± 0.048
QAQAQAQAQAQAQAQAQ [GAL11]	2.84 ± 0.032	3.1 ± 0.034	3.101 ± 0.024	3.04 ± 0.033
QAQQAQQAQARLQQGRR [SNF2]	3.02 ± 0.08	3.11 ± 0.092	2.88 ± 0.048	3.02 ± 0.061
QDIKKAKRVENFNSSAP [DSN1]	3.31 ± 0.1	3.44 ± 0.085	3.02 ± 0.16	3.42 ± 0.06
QDISSSTRVEFEKLYSD [FAS2]	–	3.05 ± 0.24	3.27 ± 0.14	–
QDKEGIPPDQQRLIFAG [RPS31]	2.95 ± 0.068	2.8 ± 0.057	3.19 ± 0.035	3.15 ± 0.033
QDKEKIDNLKDTLKENA [ITC1]	2.87 ± 0.046	3.07 ± 0.055	3.02 ± 0.043	3.09 ± 0.04
QDLNQRFQDPYVAIVVD [RRI1]	–	2.79 ± 0.11	2.29 ± 0.15	2.71 ± 0.12
